Like-named read-outs stand apart in the source and are kept apart here.
Experiments:
[1] = biological target: FcgRIIIa receptor (CD16a) (human) (UniProt P08637); test: cell-based or functional assay
[2] = biological target: FcgRIIIa receptor (CD16a) on human NK cells (human) (UniProt P08637); test: cell-based or functional assay
[3] = biological target: C1q complement (rabbit serum as complement source) (rabbit); test: cell-based or functional assay
[4] = biological target: C1q complement (rabbit serum as complement source) (rabbit); test: cell-based or functional assay; remark: listed apart in the source
[5] = biological target: CD32b (FcgRIIb receptor) (human) (UniProt P31994); test: ELISA, purified IgG on coated receptor, ratio against wild-type
Chain of CD32b (FcgRIIb receptor) (human) (P31994 46-217): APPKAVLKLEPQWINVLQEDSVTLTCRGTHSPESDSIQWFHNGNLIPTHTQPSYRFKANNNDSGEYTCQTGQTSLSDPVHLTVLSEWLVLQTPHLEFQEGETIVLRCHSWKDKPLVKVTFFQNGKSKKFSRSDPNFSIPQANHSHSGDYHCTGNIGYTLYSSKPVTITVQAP

CD64 = CD64 (UniProt P12314); test: as above
Chain of CD64 (P12314 16-288 limits assumed): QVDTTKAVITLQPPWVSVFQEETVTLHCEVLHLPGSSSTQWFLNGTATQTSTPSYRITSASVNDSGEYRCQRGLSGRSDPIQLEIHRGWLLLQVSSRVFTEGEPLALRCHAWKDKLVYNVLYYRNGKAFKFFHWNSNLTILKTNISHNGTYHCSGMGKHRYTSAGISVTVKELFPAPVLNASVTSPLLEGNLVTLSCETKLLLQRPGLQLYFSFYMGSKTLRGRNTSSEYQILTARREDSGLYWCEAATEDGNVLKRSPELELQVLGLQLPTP

[6] = biological target: CD32aH (FcgRIIa receptor, H at position 131) (human) (UniProt P12318); test: as above
Chain of CD32aH (FcgRIIa receptor, H at position 131) (human) (P12318 34-217): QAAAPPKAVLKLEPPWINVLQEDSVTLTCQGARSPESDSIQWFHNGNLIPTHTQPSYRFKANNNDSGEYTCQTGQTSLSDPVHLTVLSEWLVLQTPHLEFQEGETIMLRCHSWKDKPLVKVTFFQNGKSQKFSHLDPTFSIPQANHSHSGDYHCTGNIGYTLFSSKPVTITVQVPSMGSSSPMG

[7] = biological target: CD32aR (FcgRIIa receptor, R at position 131) (human) (UniProt P12318); test: as above
[8] = biological target: FcgRIIIa receptor (CD16a) on human NK cells (human) (UniProt P08637); test: cell-based or functional assay; remark: listed apart in the source
[9] = biological target: C1q complement (rabbit serum as complement source) (rabbit); test: cell-based or functional assay; remark: listed apart in the source

Chain of FcgRIIIa receptor (CD16a) on human NK cells (human) (P08637 17-254): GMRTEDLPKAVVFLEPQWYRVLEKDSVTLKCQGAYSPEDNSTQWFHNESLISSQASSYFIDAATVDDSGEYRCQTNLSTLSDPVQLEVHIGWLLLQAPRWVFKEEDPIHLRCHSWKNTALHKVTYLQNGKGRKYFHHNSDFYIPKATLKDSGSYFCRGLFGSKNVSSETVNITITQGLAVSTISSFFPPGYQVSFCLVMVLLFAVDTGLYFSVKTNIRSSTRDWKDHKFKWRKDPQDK
Chain of FcgRIIIa receptor (CD16a) (human) (P08637 17-254): as above

| Substance | ADCC EC50: Antibody concentration (ng/ml) giving 50% lysis of an internal control [1] | ADCC, Ratio [WT]/[antibody] [1] | ADCC [2] | ADCC, EC45: Antibody concentration (ng/ml) giving 45% maximum lysis of an internal control [2] | ADCC, Ratio [WT]/[antibody] [2] | CDC [3] | CDC, Antibody concentration (ng/ml) giving 50% lysis of an internal control [4] | CDC, Ratio [WT]/[antibody] [4] | ELISA ratio (purified antibodies) [5] | ELISA ratio (purified antibodies) (CD64) | ELISA ratio (purified antibodies) [6] | ELISA ratio (purified antibodies) [7] | ADCC, EC50: Antibody concentration (ng/ml) giving 50% maximum lysis of an internal control [8] | CDC, Antibody concentration (ng/ml) giving 50% lysis of an internal control [9] | CDC, Ratio [WT]/[antibody] [9] | ADCC, EC50: Antibody concentration (ng/ml) giving 50% maximum lysis of an internal control [2] |
| --- | --- | --- | --- | --- | --- | --- | --- | --- | --- | --- | --- | --- | --- | --- | --- | --- |
| IgG-WT (antibody) | 12.3 ng/mL | 1 |  |  |  |  |  |  |  |  |  |  |  |  |  |  |
| anti-CD20 IgG variant O3A-05 (K290E, T366A, A378V) (antibody) |  |  | 8 | 0.2 ng/mL | 8 | 1.5 | 91 ng/mL | 1.46 | 4.5 | 1.2 | 4.02 | 3.3 |  |  |  |  |
| anti-CD20 IgG variant Q3A-39 (N286I, P396L, N421T) (antibody) |  |  | 5.3 | 0.3 ng/mL | 5.33 | 2.2 | 61 ng/mL | 2.18 | 3.8 | 1.5 | 4.83 | 2.3 |  |  |  |  |
| anti-CD20 IgG variant A3A-105 (G316D, K326E) (antibody) |  |  |  |  |  |  |  |  |  |  |  |  | 1.37 ng/mL |  |  |  |
| anti-CD20 IgG variant N3A-87 (K290E, K320E, T350A, P396L) (antibody) |  |  | 1 | 1 ng/mL | 1 | 1.3 | 106 ng/mL | 1.25 | 9 | 1.5 | 3.92 | 3.7 |  |  |  |  |
| anti-CD20 IgG variant G3A-103 (K248E, A378V) (antibody) |  |  | 33.9 |  | 33.9 | 7.1 |  |  | 1.2 | 1.2 | 0.5 | 0.9 |  | 33.3 ng/mL | 7.1 | 0.31 ng/mL |
| anti-CD20 IgG variant J3B-118A (P396L, N421T, A378V) (antibody) |  |  | 10.8 |  | 10.8 | 11 |  |  | 3.7 | 1.4 | 2.7 | 1.8 |  | 21.6 ng/mL | 11 | 0.97 ng/mL |
| anti-CD20 IgG variant A3A-14 (S298N, A378V) (antibody) |  |  | 12.8 |  | 12.8 | 0.7 |  |  | 0.9 | 1.6 | 1.1 | 0.8 |  | 341 ng/mL | 0.7 | 0.82 ng/mL |
